B1: 2544 Fab κC:P94T (protein)
chain 1: EVQLVESGGGLVQPGGSLRLSCVASGFTFSNYNMNWVRQAPGKGLEWLSYISSSSGTIYYADSVKGRFTISRDNAKNSMYLQMNSLRAEDTAVYYCVRVEYYYGSSGYYYDFDSWGQGTLVTVSS
chain 2: DIVMTQSPLSLPVTPGEPASISCRSSQSLLHNGYNYLDWYLQKPGQSPQLLIYLGSNRASGVPDRFSGSGSGTDFTLKISRVEAEDVGVYYCMQTLQTFTFGQGTRLEIK
B2: 2544 Fab HC:D100GY (protein)
chain 1: B1 chain 1 with D111Y
chain 2: B1 chain 2 with T98P
B3: 2544 Fab κC:T91A (protein)
chain 1: B1 chain 1
chain 2: B1 chain 2 with T95A, T98P
B4: 2544 Fab HC:G55S (protein)
chain 1: B1 chain 1 with G56S
chain 2: B1 chain 2 with T98P
B5: 2544 Fab κC:F95P (protein)
chain 1: B1 chain 1
chain 2: B1 chain 2 with T98P, F99P

Where a chain is given by its changes, count along the chain named. Names and notes keep the numbering of the source.

This assay has as its target Recombinant His-tagged Pfs25, P13829. Briefly: BLI. Conditions: chain shown with the change; immobilized Pfs25 and mutant Fab analyte; parent: est. 4.6; read off a plot.
B1: the dissociation constant (Kd) (usually the constant that tells how readily two partners part at equilibrium) was found to be 14 nM.
The value for B2 was 18 nM.
The value for B3 was 12 nM.
As for B4, the figure is 14 nM.
In the case of B5, the Kd was determined as 22000 nM.

For the origin of these results see publication PMC6760140.
